Assay results published in patent US20200157198A1 (POPULAS BIOPHARMACEUTICAL WUHAN, published 2020).

B1: 5A2F9-4 antibody (antibody, V domains shown)
VH: QVQLQQPGAELVKPGASVKLSCKASGYTFTSYWMHWVKQRPGQGLEWIGEINPRNGRINQNEKFKSKATLTVAKSSSTAYMQLSSLTSEDSAVYYCSRGGGSSAEGGYWGQGTTLTVSS
VL: DVLMTQTPLSLPVSLGDQASISCRSSQSIVHSNGNTYLDWYLQKPGQSPKLLIYKVFNRLSGVPDRFSGSGSGTDFTLKISRVEAEDLGVYYCFQGSHVPLTFGAGTKLELQ
notes: Mouse hybridoma monoclonal antibody

Key:
[1] = biological target: polypeptide C8079BB030-1 (…); assay: indirect ELISA on coated peptide (1 ug/ml); unimmunized serum 1:1,000; column No. 1958
[2] = biological target: polypeptide C8079BB030-1 (…); assay: indirect ELISA on coated peptide (1 ug/ml); unimmunized serum 1:1,000; column No. 1957
[3] = biological target: polypeptide C8079BB030-1 (…); assay: indirect ELISA on coated peptide (1 ug/ml); unimmunized serum 1:1,000; column No. 1954
[4] = biological target: polypeptide C8079BB030-1 (…); assay: indirect ELISA on coated peptide (1 ug/ml); unimmunized serum 1:1,000; column No. 1955
[5] = biological target: polypeptide C8079BB030-1 (…); assay: indirect ELISA on coated peptide (1 ug/ml); unimmunized serum 1:1,000; column No. 1956
[6] = biological target: T1, HA-tagged human Nav1.9 expressed in ND7/23 cells (human, UniProt Q9UI33 1-1791, limits assumed); assay: Western blot of lysate of ND7/23 cells transfected with HA-hNav1.9; antibody 1:300
T1 construct: Assayed as SDS-PAGE-separated lysate of transfected ND7/23 cells (Western blot); also called HA-hNav1.9; human Nav1.9-HA; not shown: HA tag
T1 sequence (Q9UI33 whole entry): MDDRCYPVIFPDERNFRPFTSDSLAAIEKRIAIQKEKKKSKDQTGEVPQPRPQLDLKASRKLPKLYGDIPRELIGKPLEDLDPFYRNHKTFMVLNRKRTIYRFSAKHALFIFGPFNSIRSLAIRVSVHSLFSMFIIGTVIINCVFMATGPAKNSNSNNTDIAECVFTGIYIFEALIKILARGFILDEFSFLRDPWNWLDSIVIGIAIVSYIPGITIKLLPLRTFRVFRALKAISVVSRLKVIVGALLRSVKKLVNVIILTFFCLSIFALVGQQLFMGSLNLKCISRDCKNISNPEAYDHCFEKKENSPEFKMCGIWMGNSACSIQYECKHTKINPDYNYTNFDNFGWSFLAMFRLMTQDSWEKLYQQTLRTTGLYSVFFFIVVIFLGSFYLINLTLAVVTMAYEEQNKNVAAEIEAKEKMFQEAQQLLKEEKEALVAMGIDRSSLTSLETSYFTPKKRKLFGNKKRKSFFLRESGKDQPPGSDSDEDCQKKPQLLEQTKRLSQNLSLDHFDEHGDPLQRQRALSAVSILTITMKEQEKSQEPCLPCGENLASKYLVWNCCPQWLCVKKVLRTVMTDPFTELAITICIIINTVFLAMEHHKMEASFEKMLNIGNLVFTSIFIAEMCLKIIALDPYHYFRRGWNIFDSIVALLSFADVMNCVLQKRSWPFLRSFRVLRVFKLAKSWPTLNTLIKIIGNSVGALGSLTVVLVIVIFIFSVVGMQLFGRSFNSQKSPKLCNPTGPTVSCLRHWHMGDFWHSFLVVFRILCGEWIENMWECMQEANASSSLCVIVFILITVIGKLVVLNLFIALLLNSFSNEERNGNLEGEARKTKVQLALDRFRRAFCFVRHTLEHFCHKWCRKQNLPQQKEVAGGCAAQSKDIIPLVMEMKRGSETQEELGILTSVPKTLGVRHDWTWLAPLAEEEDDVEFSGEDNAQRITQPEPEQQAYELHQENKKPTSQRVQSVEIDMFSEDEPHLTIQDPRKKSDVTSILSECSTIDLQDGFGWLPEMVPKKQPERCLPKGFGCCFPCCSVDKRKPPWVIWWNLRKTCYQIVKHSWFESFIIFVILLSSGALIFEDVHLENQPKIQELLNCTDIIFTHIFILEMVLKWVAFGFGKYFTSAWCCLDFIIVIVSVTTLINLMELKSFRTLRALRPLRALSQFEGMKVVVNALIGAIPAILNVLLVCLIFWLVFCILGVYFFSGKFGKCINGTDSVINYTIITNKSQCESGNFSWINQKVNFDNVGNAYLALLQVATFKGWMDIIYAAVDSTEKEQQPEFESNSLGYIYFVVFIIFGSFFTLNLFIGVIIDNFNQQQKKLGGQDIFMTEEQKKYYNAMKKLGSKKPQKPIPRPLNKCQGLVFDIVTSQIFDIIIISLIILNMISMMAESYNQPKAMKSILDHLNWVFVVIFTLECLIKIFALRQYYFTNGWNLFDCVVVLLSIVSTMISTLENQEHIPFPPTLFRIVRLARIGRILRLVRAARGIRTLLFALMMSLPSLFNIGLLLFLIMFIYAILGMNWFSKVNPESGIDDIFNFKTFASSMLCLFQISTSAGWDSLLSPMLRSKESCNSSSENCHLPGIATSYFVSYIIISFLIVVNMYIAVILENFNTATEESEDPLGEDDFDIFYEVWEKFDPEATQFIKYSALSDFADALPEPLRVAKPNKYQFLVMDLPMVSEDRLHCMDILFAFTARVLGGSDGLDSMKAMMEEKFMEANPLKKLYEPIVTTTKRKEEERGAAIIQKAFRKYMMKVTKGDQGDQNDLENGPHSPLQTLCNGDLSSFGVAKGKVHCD
Method: 4. The cell lysate was centrifuged at 12000 rpm for 10 minutes at 4° C. to collect the cell lysis supernatant.
6. After […], the cells were incubated with HA tag (1:2000) antibody and 5A2F9-4 (1:300) antibody for 1 hour at room temperature.
8. A digoxigenin-labeled anti-mouse antibody (1:20000) was added and incubated for 1 hour at room temperature;

| Molecule | OD value (450 nm) [1] [OD450] | OD value (450 nm) [2] [OD450] | OD value (450 nm) [3] [OD450] | OD value (450 nm) [4] [OD450] | OD value (450 nm) [5] [OD450] | binding result [6] |
| --- | --- | --- | --- | --- | --- | --- |
| negative control of unimmunized serum | 0.104 | 0.088 | 0.072 | 0.066 | 0.086 |  |
| B1 |  |  |  |  |  | binds |
